The record followed here is publication PMC10311354, “RNA-binding is an ancient trait of the Annexin family” (Frontiers in Cell and Developmental Biology, 2023).

In data set [1] the test system is Δ142AnxA7 (Rattus norvegicus). Kind of data set: BLI. The conditions noted are these: RNA-binding buffer: 10 mM triethanolamine pH 7.4, 50 mM KCl, 1 mM DTT, 2 mM MgSO4, 100 uM CaCl2; spot blot at RT, blocked with 1 mg/mL tRNA; BLI temperature ….
Data set [2] concerns Δ188AnxA11 (Rattus norvegicus). Kind of data set: BLI. Conditions: RNA-binding buffer: 10 mM triethanolamine pH 7.4, 50 mM KCl, 1 mM DTT, 2 mM MgSO4, 100 uM CaCl2; spot blot at RT, blocked with 1 mg/mL tRNA; BLI temperature ….
Data set [3] has as its system AnxA13 (Rattus norvegicus). Description: BLI. The conditions noted are these: RNA-binding buffer: 10 mM triethanolamine pH 7.4, 50 mM KCl, 1 mM DTT, 2 mM MgSO4, 100 uM CaCl2; spot blot at RT, blocked with 1 mg/mL tRNA; BLI temperature ….
Data set [4] deals with AnxA2 (Rattus norvegicus). Kind of data set: BLI. Conditions: RNA-binding buffer: 10 mM triethanolamine pH 7.4, 50 mM KCl, 1 mM DTT, 2 mM MgSO4, 100 uM CaCl2; spot blot at RT, blocked with 1 mg/mL tRNA; BLI temperature ….
Data set [5] concerns the molecule itself. Kind of data set: SDS-PAGE (Coomassie Brilliant Blue staining); purified recombinant rat Anxs on 4%-15% SDS-PAGE, denaturation buffer with beta-mercaptoethanol; dimeric forms seen as faint bands beside the monomer; nature of the dimers not known (disulfide or tight noncovalent).

As usually defined, the Kd is the concentration at which binding is half-saturated. Read a low Kd as tighter binding. For the molecule anxA2 3'UTR, the Kd is 174 nM in data set [1], over 500 nM in data set [2], 246 nM in data set [3] and 192 nM in data set [4].
On the same counts, the results for c-myc 3'UTR are 126 nM, 124 nM, 130 nM and 73.9 nM.
As for c-myc 5'UTR, in data set [4], the dissociation constant (Kd) was found to be 37.2 nM.

B1: rat Annexin A8 (natural protein, UniProt Q4FZU6 1-327, looked up)
chain: MAWWKAWVEQEGVSVKGSSHFNPDPDAETLYKAMKGIGTNEQAIIDVLTKRSNVQRQQIAKSFKAQFGKDLTETLKSELSGKFERLIVALMYPPYRYEAKELHDAMKGLGTKEGVIIEILASRTKNQLREIMKAYEEDYGSTLEEDIQGDTSGYLERILVCLLQGCRDDVSGFVDPGLALQDAQDLHAAGEKILGTDEMKFITILCTRSATHLMRVFEEYEKIANKSIEDSIKSETHGSLEEAMLTVVKCTRNVHSYFAERLYYAMKGAGTLDGTLIRNIVSRSEIDLNLIKSQFQKMYGKTLSSMIMGDTSGYYKTALLNLVGTDL
notes: Annexin A8, rat, 327 aa, cDNA from total RNA of rat lung; The forward primer puts ATGGGT before the natural start codon, so Met-Gly may precede the natural Met; also called AnxA8; source: E. coli BL21 (DE3), purified (Ni2+-NTA, size exclusion chromatography)
As for B1, in data set [5], the binding result is recorded as “binds”.

B2: rat Annexin A3 (natural protein, UniProt P14669 1-324, looked up)
chain: MAASLWVGPRGTINNYPGFNPSVDAEAIRKAIKGIGTDEKTLINILTERSNAQRQLIVKQYQEAYEQALKADLKGDLSGHFEHVMVALITAPAVFDAKQLKKSMRGMGTDEDTLIEILTTRTSRQMKEISQAYYTAYKKNLRDDISSETSGDFRKALLTLADGGRDESLKVDEHLAKKDAQTLYDAGEKKWGTDEDKFTEILCLRSFPQLKLTFDEYRNISQKDIEDSIKGELSGHFEDLLLAVVRCTRNTPAFLAGRLHQALKGAGTDEFTLNRIMVSRSEIDLLDIRREFKKHYGCSLYSAIQSDTSGDYRTVLLKICGGDD
notes: The forward primer puts ATGGGT before the natural start codon, so Met-Gly may precede the natural Met; also called AnxA3; source: E. coli BL21 (DE3), purified (Ni2+-NTA, size exclusion chromatography)
For the molecule B2, the binding result in data set [5] is listed as “binds”.

B3: rat Annexin A1 (natural protein, UniProt P07150 1-346, looked up)
chain: MAMVSEFLKQACYIEKQEQEYVQAVKSYKGGPGSAVSPYPSFNPSSDVAALHKAIMVKGVDEATIIDILTKRTNAQRQQIKAAYLQETGKPLDETLKKALTGHLEEVVLAMLKTPAQFDADELRAAMKGLGTDEDTLIEILTTRSNQQIREITRVYREELKRDLAKDITSDTSGDFRNALLALAKGDRCEDMSVNQDLADTDARALYEAGERRKGTDVNVFNTILTTRSYPHLRKVFQNYRKYSQHDMNKALDLELKGDIEKCLTTIVKCATSTPAFFAEKLYEAMKGAGTRHKTLIRIMVSRSEIDMNEIKVFYQKKYGIPLCQAILDETKGDYEKILVALCGGN
notes: Annexin A1, rat, isoform X1, 346 aa, cDNA by RT-PCR from PC12 cells; The forward primer puts ATGGGT before the natural start codon, so Met-Gly may precede the natural Met; also called AnxA1; source: E. coli BL21 (DE3), purified (Ni2+-NTA, size exclusion chromatography)
As to B3, in data set [5], the binding result is listed as “binds”.

B4: rat Annexin A2 (natural protein, UniProt Q07936 1-339, looked up)
chain: MSTVHEILCKLSLEGDHSTPPSAYGSVKPYTNFDAERDALNIETAIKTKGVDEVTIVNILTNRSNAQRQDIAFAYQRRTKKELPSAMKSALSGHLETVMLGLLKTPAQYDASELKASMKGLGTDEDSLIEIICSRTNQELQEINRVYKEMYKTDLEKDIISDTSGEFRKLLVALAKGKRAEDGSVIDYELIDQDARELYDAGVKRKGTDVPKWISIMTERSVCHLQKVFERYKSYSPYDMLESIRKEVKGDLENAFLNLVQCIQNKPLYFADRLYDSMKGKGTRDKVLIRIMVSRSEVDMLKIRSEFKRKYGKSLYYFIQQDTKGDYQKALLYLCGGDD
notes: The forward primer puts ATGGGT before the natural start codon, so Met-Gly may precede the natural Met; also called AnxA2; source: E. coli BL21 (DE3), purified (Ni2+-NTA, size exclusion chromatography)
For the molecule B4, the binding result in data set [5] is recorded as “binds”.
